Reference: US20200140532A1
Several values for one entry are separate records, joined by “and”; a condition that tells them apart may be missing. Equal values may be shown once.

Key:
Experiment in all cases: periplasmic extract ELISA, control
[1] = biological target: recombinant bovine Aggrecan G1-IGD-G2 (bovine) (UniProt P13608)
[2] = biological target: recombinant cynomolgus Aggrecan G1-IGD-G2 (cynomolgus)
[3] = biological target: recombinant dog Aggrecan G1-IGD-G2 (dog) (UniProt Q28343)
[4] = biological target: recombinant human Aggrecan G1-IGD-G2 (human) (UniProt P16112)
[5] = biological target: recombinant rat Aggrecan G1-IGD-G2 (rat) (UniProt P07897)

In the case of cAbLys3 (VHH), the OD 450 nm [1] is reported as 0.05 OD 450 nm and 0.06 OD 450 nm, the OD 450 nm [2] is reported as 0.06 OD 450 nm and 0.05 OD 450 nm and the OD 450 nm [3] is reported as 0.06 OD 450 nm. For the same substance, the OD 450 nm [4] was 0.05 OD 450 nm and the OD 450 nm [5] was 0.06 OD 450 nm.
